# Experimental data published in the Immune Epitope Database (IEDB).
# pIC50, pKd: −log10 of the molar value.
# Tests used:
# HLA-B*15:01 [1] = assay: IEDB peptide-MHC binding, purified MHC/competitive/fluorescence; ≥ and ≤ were set here for values at or beyond the usual limits of such assays
# HLA-A*02:01 [2] = assay: as above
# HLA-A*02:01 [3] = assay: IEDB peptide-MHC binding, purified MHC/competitive/radioactivity; filed as Kd, often an IC50 or EC50 that approximates it; ≥ and ≤ were set here for values at or beyond the usual limits of such assays
# HLA-A*02:03 = assay: as above
# HLA-A*02:06 = assay: as above
# HLA-A*02:17 = assay: as above
# HLA-B*15:01 [4] = assay: as above
# HLA-A*01:01 [5] = assay: as above; conditions: source organism: Dengue virus 4 Philippines/H241/1956
# HLA-A*24:02 [6] = assay: IEDB peptide-MHC binding, purified MHC/competitive/fluorescence; ≥ and ≤ were set here for values at or beyond the usual limits of such assays
# HLA-B*57:01 = assay: IEDB peptide-MHC binding, purified MHC/direct/fluorescence; filed as Kd, often an IC50 or EC50 that approximates it; ≥ and ≤ were set here for values at or beyond the usual limits of such assays; conditions: source organism: Listeria monocytogenes
# HLA-B*58:01 = assay: as above; conditions: source organism: Listeria monocytogenes
# HLA-B*46:01 = assay: IEDB peptide-MHC binding, purified MHC/competitive/fluorescence; filed as Kd, often an IC50 or EC50 that approximates it; ≥ and ≤ were set here for values at or beyond the usual limits of such assays; conditions: source organism: Listeria monocytogenes J0161
# HLA-A*01:01 [7] = assay: as above
# HLA-A*03:01 = assay: as above; conditions: source organism: Salmonella enterica subsp. enterica serovar Typhi
# HLA-B*15:01 [8] = assay: as above; conditions: source organism: Salmonella enterica subsp. enterica serovar Typhi
# HLA-B*07:02 = assay: IEDB peptide-MHC binding, purified MHC/competitive/radioactivity; filed as Kd, often an IC50 or EC50 that approximates it; ≥ and ≤ were set here for values at or beyond the usual limits of such assays
# HLA-B*35:01 = assay: as above
# HLA-B*51:01 = assay: as above
# HLA-B*53:01 = assay: as above
# HLA-B*54:01 = assay: as above
# HLA-B*08:01 = assay: as above; conditions: source organism: Dengue virus 1 Brazil/97-11/1997
# HLA-A*30:02 = assay: as above; conditions: source organism: Dengue virus 3 Martinique/1243/1999
# HLA-A*32:01 = assay: as above
# HLA-A*23:01 = assay: as above; conditions: source organism: Dengue virus 2 Peru/IQT2913/1996
# HLA-A*24:02 [9] = assay: as above; conditions: source organism: Dengue virus 2 Peru/IQT2913/1996
# HLA-A*11:01 = assay: IEDB peptide-MHC binding, purified MHC/competitive/fluorescence; ≥ and ≤ were set here for values at or beyond the usual limits of such assays; conditions: source organism: Vaccinia virus WR
# [10] = source organism: Zaire ebolavirus
# [11] = source organism: Dengue virus 1 Singapore/S275/1990
# [12] = source organism: Dengue virus 1 Brazil/97-11/1997
# [13] = source organism: Dengue virus 2 Jamaica/1409/1983
# [14] = source organism: Dengue virus 4 Philippines/H241/1956
# [15] = source organism: SARS coronavirus Tor2
# [16] = source organism: Vaccinia virus WR
# [17] = source organism: Dengue virus 3 Martinique/1243/1999
# [18] = source organism: Dengue virus 2 Peru/IQT2913/1996
# [19] = source organism: Dengue virus 1 Nauru/West Pac/1974
# [20] = source organism: Mammarenavirus guanaritoense
sequence,measurement,setting,value
AGVNVGEQY,pIC50,HLA-B*15:01 [1]; [10],4.63
AIALGVATA,pIC50,HLA-A*02:01 [2]; [10],6.06
same,pIC50,HLA-B*15:01 [1]; [10],≤ 3.63
ALIAVLTGGV,pKd,HLA-A*02:01 [3]; [11],8.12
same,pKd,HLA-A*02:03; [12],8.97
same,pKd,HLA-A*02:06; [12],7.69
same,pKd,HLA-A*02:17; [11],6.63
AQMWTLMYF,pKd,HLA-A*02:06; [13],8.56
same,pKd,HLA-B*15:01 [4]; [13],9.14
CKSRNTTPM,pIC50,HLA-B*15:01 [1]; source organism: Vaccinia virus,≤ 3.66
FLEFEALGFL,pKd,HLA-A*01:01 [5],5.49
same,pKd,HLA-A*02:01 [3]; [14],7.55
same,pKd,HLA-A*02:17; [14],6.97
FLIDGPETA,pKd,HLA-A*02:01 [3]; [13],7.76
same,pKd,HLA-A*02:03; [13],7.89
same,pKd,HLA-A*02:06; [13],6.42
same,pKd,HLA-A*02:17; [13],5.77
FLMTATLED,pIC50,HLA-A*02:01 [2]; source organism: Variola virus,5.59
same,pIC50,HLA-A*24:02 [6]; source organism: Variola virus,≤ 4.11
same,pIC50,HLA-B*15:01 [1]; source organism: Variola virus,4.54
FSIMIYFTF,pKd,HLA-B*57:01,≤ 4.70
same,pKd,HLA-B*58:01,≤ 4.70
same,pKd,HLA-B*46:01,≤ 4.70
FTAMQALDY,pKd,HLA-A*01:01 [7]; source organism: Salmonella enterica subsp. enterica serovar Typhi,8.80
same,pKd,HLA-A*03:01,≤ 4.70
same,pKd,HLA-B*15:01 [8],7.01
GPLVRKIFV,pKd,HLA-B*07:02; [15],5.86
same,pKd,HLA-B*35:01; [15],5.22
same,pKd,HLA-B*51:01; [15],≤ 4.65
same,pKd,HLA-B*53:01; [15],4.92
same,pKd,HLA-B*54:01; [15],4.74
GTFDLGGLY,pKd,HLA-A*01:01 [7]; source organism: Influenza A virus (A/X-31(H3N2)),6.31
HPDFCKNRRY,pKd,HLA-B*07:02; [16],≤ 4.16
same,pKd,HLA-B*35:01; [16],5.66
same,pKd,HLA-B*51:01; [16],≤ 4.16
same,pKd,HLA-B*53:01; [16],5.94
same,pKd,HLA-B*54:01; [16],≤ 4.31
HPRHYATIM,pKd,HLA-B*07:02; source organism: Variola virus,8.81
same,pKd,HLA-B*35:01; source organism: Variola virus,6.82
same,pKd,HLA-B*51:01; source organism: Variola virus,4.72
same,pKd,HLA-B*53:01; source organism: Variola virus,4.76
same,pKd,HLA-B*54:01; source organism: Variola virus,4.74
HQLWTTLLSL,pKd,HLA-A*02:06; [12],7.04
same,pKd,HLA-B*08:01,5.70
same,pKd,HLA-B*15:01 [4]; [12],8.92
IEILNTIQF,pIC50,HLA-A*24:02 [6]; [16],≤ 3.51
same,pIC50,HLA-B*15:01 [1]; [16],≤ 3.86
ILALFLAHY,pKd,HLA-A*30:02,5.01
same,pKd,HLA-B*15:01 [4]; [17],7.27
ILQKTERGV,pIC50,HLA-A*02:01 [2]; [10],5.06
same,pIC50,HLA-B*15:01 [1]; [10],4.20
IMASENSSA,pIC50,HLA-A*02:01 [2]; [10],5.60
same,pIC50,HLA-B*15:01 [1]; [10],≤ 3.98
IMAVGIVSI,pKd,HLA-A*02:01 [3]; [11],8.67
same,pKd,HLA-A*02:03; [11],9.19
same,pKd,HLA-A*02:17; [11],5.72
same,pKd,HLA-A*32:01; [11],8.00
same,pKd,HLA-B*15:01 [4]; [11],7.51
IMLIPTVMAF,pKd,HLA-A*23:01,7.09
same,pKd,HLA-A*24:02 [9],5.81
same,pKd,HLA-B*15:01 [4]; [18],8.57
same,pKd,HLA-B*53:01; [18],4.95
ISIKVKNHI,pKd,HLA-B*15:01 [4]; [16],5.25
KLNDWDFVV,pKd,HLA-A*02:03; [17],7.70
same,pKd,HLA-A*02:06; [17],7.35
same,pKd,HLA-A*02:17; source organism: Dengue virus 3 China/80-2/1980,6.90
KSINVEYRF,pIC50,HLA-A*02:01 [2]; [16],5.46
same,pIC50,HLA-A*11:01,≤ 3.77
same,pIC50,HLA-A*24:02 [6]; [16],6.19
same,pIC50,HLA-B*15:01 [1]; [16],≤ 4.01
same,pKd,HLA-A*32:01; [16],8.82
LIHQGMHMV,pIC50,HLA-A*02:01 [2]; [10],6.35
same,pIC50,HLA-B*15:01 [1]; [10],≤ 4.06
LIIYYQLAG,pKd,HLA-B*15:01 [4]; [16],5.89
LISIRILYY,pKd,HLA-B*15:01 [4]; source organism: Vaccinia virus Copenhagen,6.84
LLFKTSAGV,pKd,HLA-A*02:01 [3]; [19],7.73
same,pKd,HLA-A*02:03; [12],7.92
same,pKd,HLA-A*02:17; [19],6.90
LPLTSLVITY,pKd,HLA-B*07:02; [16],5.14
same,pKd,HLA-B*35:01; [16],8.08
same,pKd,HLA-B*51:01; [16],4.78
same,pKd,HLA-B*53:01; [16],7.90
same,pKd,HLA-B*54:01; [16],5.57
LPNDRVLDI,pKd,HLA-B*07:02; [20],5.14
same,pKd,HLA-B*35:01; [20],5.57
same,pKd,HLA-B*51:01; [20],6.27
same,pKd,HLA-B*53:01; [20],6.59
same,pKd,HLA-B*54:01; [20],4.88
